Consider 21 sequences from the DeepSol protein solubility set.

The nature of the data set: soluble on expression in E. coli; label from the status in PepcDB or PDB records.
In the case of “MAHHHHHHMSVPSLRRSDRSGDPTRDRVHYVRAQRQHLVRETRMLQMALEELQEEAERENTEEALMRRGIDTTHRELLRCLLHLALAEQDSTRGAAAASGAQAQYDETSAIICEVLRRYKHEQDAFTQEAKQRLESIREEARQACMNVGDTLAVPQGEHAHSSGVGSVVEATDCDSLRSALEALREMQAEVDEETEATLLSIGRTLFC”, the “soluble on expression in E. coli” value is “not soluble”.

Regarding “MAHHHHHHMSYYDKSDKIGYDDTDKELNEELEEMLARTPPHIQRHLQHRIHDGILQRMKEDTARRCWEFIKKYETCVNSVKPYDLTDCRPHRDALNDCAHEVNREQIYQKYRMMYLRGELLRLHESRLGQKMETMKVRAPDSIRGWKPDYAPKYAEMMSDIGLNLGPEAADERKLS”, the “soluble on expression in E. coli” value was “not soluble”. Next, “MAHHHHHHMTADARTDDGGLRRAYTRSMPAVLRPLWLLEESMRDVQVQWEEIIEGVMVEDVSFSSVRAAVLHVERLASQLKAIKQELMPRLSHFSQKEEDSEQPFLRYCSCAAKPTVNGDNSICDLAQGEQTQAARLAARVWVWGVCVGTIMNDLELLSTSLSFAASTCLLEKFAEEVRLTEASTFFLGKDEGVASPLSDSDLLLACQLLYHLFTGDDAAAEMTCHRVLSLIDDCEERDDGKECRGCILSRLVRIAECVAAEDYGALQVLMKVDFFTGVDTLCSLPPLIIFFTQMMLDTVVHRQLVQGCFQNVWRPVINVDRPARDESPSVPSEAMMNSFCSSSRLSFTTKRRLMTCCAVFRESLPPRVPWPIPEDLMDRCFRMGL”: “not soluble”; “MAHHHHHHMTDMELVEALNATEVPIARAVFLMISAVQDADAGDNKTWSCCHPDRSPAASPGSTTGWRSLRESPSGPAVIEVCYNDGADSFLTVKWVPMDKTHLVMITQRSDRERSHQPLNTSFCIEDEPLASLVLGQQTGSGASAAAMWTAESLGSALHRLRCLLQSAIGNTGRGSEQNEKFSAAQDSDCGRELPSPRRRNLVILNSTAVDPPLLLPLPCLPKAVCYLREWSRVLPAPVTAKRISSPVVEVLVWVAA”: “soluble”; “MAHHHHHHMTDVAEGHQSYANAFISEGDRTSAVRYLDLFLRLYEEYCDVAEVEANSRVLQAATVMQSNSHAPDLLSYVVSAAALGIGGTRALAPALASLPLKVLNLSECYLGDAGLRVLAETLSASSHSTGGLRVLELRGISASDGSSVALLVTALRSLQLLDVSSNRFGTRPPGFALLCAAMGYHPALREVHIADNMVSGCCESCVGAIAEWLVKASRACMLQHVDLRFNTLGLYRRGLYNTVVDGKEVQCTLYGFYPLVDALLLNNSIEVLEVGNNGFPPGVLDAIEAKLAVNKRTKKALQEYYTNHIDR”: “not soluble”. Next, “MAHHHHHHMTGADPDMLGSSAPNRPALMEPSVAPSPTSSPPATNAHANGSNSNGAGNVPLSQSTWRDSAAGSQPHGHGMPSTVRAADAPGVTEEKQAEGAFGADVHYNPATEHDFAVRGGLDGGAEGEHNSAKKIRLNNVSHFKNVPSRLNVQRQSTEADLVPCTYCGRKFLPGRVQKHEDCCIDRSKPLTARKGGALPARPSTGAATPRLAKPTPAAPAVESAATGKAKFCGGCGCKKSEPDQKFCTECGHKL”: “soluble”. Next, “MAHHHHHHMTHTGAAAASGASASTLSSQSTAAVASDDAFSEQHQGQKQRNLLRCFALADLLGVSPTVVQQLANAAATPSSSLHHARNTSRASSHCSTESDPVIRAYQLEQILVAAVVKQLFDRCCDPDQSIQNGGSVDAGQPAASSVSTTARQPARKHQPSSLKAPPWSAALSEPRRACTSPQQPDGERLLPSVLSSPQGVARVDALHASFLPLLLVALLQRVSEGSGGDTQATDATVPRQTPDTNAAASNTSAAVFSLRQQRSFRTALHQLLPLYTPLLLQRRRAARAVVSSVVVALQEYPCSGHDDGESTTEEEESRKRIQRLVHQGLCCSEVKQWLHAARLLSDTLVACLSHVSPRASIAATAPPPAIRRRRGGRGRFDGGAVDTGDGRGVAECGRDAPPRWRVGGGGAASVRSLVVGIRYERFEWCRAARARRQHPCKCWGPNEPTRAVHHHHHCRGARACRGHVYRRRGDVRRHLAPRGWPFWRTAAAATVELCSCWWSHSADTTRCTDTLSR”: “not soluble”; “MAHHHHHHMTKTNGQNAARKLVRLRCRNRWADKGWKRAHTFSARKANPFGGSSHAKGIVLEKIGVGAKQPNSAIRKCVRVQLIKNDKKIIAFVPNDGCLHFIEENDEVLVSGFGRSGHAVGDIPGVRFKIVKVSNVGLYALYRQKKEKPRN”: “not soluble”. “MAHHHHHHMTPAGAGEIFLRHNPYRSEVISWYRKFLKASFSVPWETDEDALYVLEEARRLFRKNARINDIETIERKLREAEMRYEIGVHYRIPYPRAFHKTQGSLQESGVAYAADLDSMYDHPVSPRIGWIMEGSVNGGTMGGSEHLTQYLEDGPGVENDNLSEGR”: the “soluble on expression in E. coli” value is “not soluble”.

In the case of “MAHHHHHHMVEAQRGYNCVWHSWPPPLQGVNKHFNSCAASPLPLQLLVGNRILLITKDPPLKVIKFFNEFQPEEYIKPGNICTQNVTLKFGDVLNVPVSMQKDLQKRKVTFDIVDQKIVIRKDKVLAEKDKLVSAENAKLLRMLNMKIANFDITVLGYWNVNKFVSLM”, the “soluble on expression in E. coli” value is on record as “soluble”.

With “MAHHHHHHMVGAMHDIQVGFLDRCSVFQFTLTCTVLDFQKVAEPQPKSPGSLPSSTRTAPNPNGEEVEKHINKEQYTVRCLGSEAYTEALKNYLDDGCIVRVIGRLKTTEVVDAGKKQPFPCIIVEQGRWSTVSLVHSLRKQRRDWQLQNILTSVATLE”, the “soluble on expression in E. coli” value is on record as “not soluble”. The result for “MAHHHHHHMVMYDPAAPNNYRDVKVMWWKRAREDERKNDISRSLAAAAEAGSSPFDMPDMMRMAPRDELAYDILGGSGDTMSLHLSAEELHQRRVRQSAALGITTAMNLEREELEAAHKARVAAGMDRRGRIGQKLGKLMSVAATRENATKTNTTSDHVGDGINTSAGEMTPATTMATSTTTSLPGITAPLVFQRSELAAGGYVVREDVGALEKRKTHYGKPSSTILIRFVRDGPPVEVFDDTSNKNVGSGTLRNAFLENIQDLCGQCGVVRSLRYMVLDDGKRAALRARLENEREEVSAASADVETRLAREMIRVLVRFDTVANAFKALEMLQQRHGSNWDVCFFSTQLFDVGALGPAEGESLCCA” reads “not soluble”.

For “MAHHHHHHMVNRSTRLQRGPLKKKTTAVAARTSSHAEQPCADGPAKTSSPQTNSIKNVEMTVGVHASPAVAVGDTPQGKLRLRRRAKKDRPLVAAKTDMKSTVRNRKRGRARGSQPGRGSTATTIVHDEQRVTRRPAGGNRQRNQHRQLAEKLVAREEHQSRKKAAEKRMETAKAELALFDQVMQIPSFEENPFAAIEGHLNGTMAFLQPQTPDVGRRKLEE”, the “soluble on expression in E. coli” value is given as “not soluble”. Next, “MAHHHHHHMVRPEYSSPPEFFYNEEEAKKYVRNSRIRDIQSQMTERAMELLLLPDSPCLLLDIGCGSGISGMTLNELDHFWIGIDISIHMLRLQNEAHLGGDMLLADMGKLMRFQPCIFDGVVSISALQWLCNWDKKDESPVSRISTFFKWLYNCLKRGARAVFQFYPDSPEQIKTLTNFAMKAGFGGGVVVDFPNSAKSKKYYLCLWAGSSLVATMPTALNDEEENIISHERRKFNKKTKKQIKKNKEWILKKKDQRRMKGLDVKRDSKYTGRKRKGRF”: “not soluble”; “MAHHHHHHMVSKTRKQRQKKKAGMQAHDGVLPPVVPSVPKSVHLKKTRPNMKGKMKIRLGLESPIDIYNGFEERKGVIWRCPTCAKACRVVGFCVDCASGVKSKSHAGQLSGRASTKKEAAQTRAPKLRIKEKSRVVKLRRKK”: “soluble”; “MAHHHHHHMWKAIFGKKVDSIKAIDSIYHLSDNDFRWLQGFPQLKGSDRVQTLASSEGEGSKDDYMEEPVGPVSHRDVLLYTVGIIKGATHPLLRESSLAVTGTHTKEGETFFTLDFR”: “not soluble”. Regarding “MAHHHHHHMWNGPTYAIARVRWDSVVRTFSACGTSLASPQRRFSSWFEEQPGGGQHNVEDKAVAAFAVNADRLEKGKTIIKKKAHGIPFHISDAEAVDNVCRHHGAAVEIHSVERFLMPFWLTETSAAGTFKADLLQHDRMNITQPHYFLWLEGPRYQFNYPFGEYMPMNQVSASYREPLKVVERCLTGTHVPSMLLSRFELLHEVEKMEHRPTVIPFTMSTVTALSVIERRVNRRVVLDRIDRELRKFHGSFLKSNVSVMSLQMVASSIRPAFLPLFKLTVSTISHSTPVPAFICGATGKVVGPVLHVQRRKRLGLAAAAAVGTLLSLAPLVEPGVATAAALAVVASSGFVQQAVQRARFVREQAHQMAQLKSVGVLNLVADSTGYRWTPEEEEKEEYEYREELRRQARARDAFEQRVKEEAARDRVRAHGTHFDPKNRRRTDLADVDPRGYYELLGLKGKEFSATAKDITKAFREAVRIHHPDVHPEGEAENKKRHMQRIIEAYKILHNPKTKKFYDSGEMSGKSQETS”, the “soluble on expression in E. coli” value is “not soluble”. Next, “MAHHHHHHMWRCGMMPRTRVLRFVWKQSYRDLLPPAAASAYVCGQLRWCDSCDGGGVPAVLESPSDAAGVYSFFSQSTASAVRALRDVTRSAHSLSITDRRLALDGLAVLLRENADLLASADALVTGMCLRDARRSLDAALNFILFCEQRLRTPTAAATTAVIMKDAASVDAEEVLHSFGCGGANICGDSHSVSTLTGKSSVALCVTAANYPLQWGMETVATALLRGSAAVWLPSLDTPLSALWLMHLLHRSNKNVVADSRGAVNIILCRADDVVAAFSRQQESGLSIVGLKNGFRDHQLSRNHQAHGIPSAISHGSISCITRWYHRVMKPSLAVVGSGHHHTETMAVRLDASRVAALICQHAFHGNGRMLYALHIAFVPKQDVLPVLQSVVQYVRNLRLGHSLDPSVNMGPLPGAAHMAAMKETVEAAVCCGDFKLQHVCGGFDVAMPAGFFCLPCAFYATVANVTPAGTEMSIRVLCETTARLRFGLDRLGGGPFVVVCGYDPPQQREALEVVLREKEQYVLHYW”: “not soluble”. The result for “MAHHHHHHMWSGLKLERLLYTFPETTTPTGWSQSDPLLSSPLGEADANEGDSSAVFGEDVNVEHRHFNNGERRRKLALRPFTVPASAMAEEGGEEGSHVHLGFSFPGEGKFDEEPEAVLWCPQGNCQWLNEESDCSQRSAMSCPARPTKTTIQLGDPGAPIKKNRERKYICNDADENSNSRVGPALYHQLEFFQESNSVSFPCESSALSHITPLDETGESVDLANHMSHLTVAVSPIQKRLLFTGVLDDAVDAPSGRDVGDDKGVGSGLQSLRREKRFLEEMDTNRDAANSNSMACTMPREPHRKFRRIDAGENDRKSLDNHFHSRR” reads “not soluble”; that for “MAHHHHHHMYRAHSKDINRNKGFHPLTYRNLRRVEQLKEEAELNKQKAEERQKELQRDQEERRYDELVLANSADSLSGELARYRQTRSIFAAEYEADAKAAKDASVASLPSPQVSKPEVQLKTSAGASFPVNSFLSKFKKEESYGSTCVMVKAEARDNTAAAASSAVASAEAETPVRKRPRDDATSNSPSSTHNGSGYGEGATKRGGDGGESAPATGFVTSAEAAQLRKELNLAQKQRHDPLMRVKEYQNSCVAAAARQLDHEQATGAVAKREDDQDKLQSRIRELLALKKKKK”, “not soluble”; that for “MAHHHHHHMYTWFHTSSHVFFVMEYCSNGDLFTYLNEHGPFAEKKVAEMLFEIIWAIRTCHDKRIAHLDLKPENVLVNHEEKCKLADFGLSAHIGSKHKKKGISHYRGTHDYWSPEQCARHQKKKQNFGEFDQKTDIWTLGILAFELKFGRPPFGSTNEERETVIMNRIQDYHWSQLFCEKMKQDLIDKLSPEFKDFLNLCLDKNPKKRPTAETLIQHPFIFLHNKSRPCIKSYATQPRGKQGPKLSHKGFNEQDGSFLTPIWFHNKG”, “not soluble”.
